We go through 3 proteins from publication doi:10.1101/2019.12.26.888982 (bioRxiv, 2019).

To fix the notation:
B1: Human TRPA1 (MBP-TRPA1) modified with BODIPY-iodoacetamide (BIA) (natural protein)
chain: KRSLRKMWRPGEKKEPQGVVYEDVPDDTEDFKESLKVVFEGSAYGLQNFNKQKKLKRCDDMDTFFLHYAAAEGQIELMEKITRDSSLEVLHEMDDYGNTPLHCAVEKNQIESVKFLLSRGANPNLRNFNMMAPLHIAVQGMNNEVMKVLLEHRTIDVNLEGENGNTAVIIACTTNNSEALQILLKKGAKPCKSNKWGCFPIHQAAFSGSKECMEIILRFGEEHGYSRQLHINFMNNGKATPLHLAVQNGDLEMIKMCLDNGAQIDPVEKGRCTAIHFAATQGATEIVKLMISSYSGSVDIVNTTDGCHETMLHRASLFDHHELADYLISVGADINKIDSEGRSPLILATASASWNIVNLLLSKGAQVDIKDNFGRNFLHLTVQQPYGLKNLRPEFMQMQQIKELVMDEDNDGCTPLHYACRQGGPGSVNNLLGFNVSIHSKSKDKKSPLHFAASYGRINTCQRLLQDISDTRLLNEGDLHGMTPLHLAAKNGHDKVVQLLLKKGALFLSDHNGWTALHHASMGGYTQTMKVILDTNLKCTDRLDEDGNTALHFAAREGHAKAVALLLSHNADIVLNKQQASFLHLALHNKRKEVVLTIIRSKRWDECLKIFSHNSPGNKCPITEMIEYLPECMKVLLDFCMLHSTEDKSCRDYYIEYNFKYLQCPLEFTKKTPTQDVIYEPLTALNAMVQNNRIELLNHPVCKEYLLMKWLAYGFRAHMMNLGSYCLGLIPMTILVVNIKPGMAFNSTGIINETSDHSEILDTTNSYLIKTCMILVFLSSIFGYCKEAGQIFQQKRNYFMDISNVLEWIIYTTGIIFVLPLFVEIPAHLQWQCGAIAVYFYWMNFLLYLQRFENCGIFIVMLEVILKTLLRSTVVFIFLLLAFGLSFYILLNLQDPFSSPLLSIIQTFSMMLGDINYRESFLEPYLRNELAHPVLSFAQLVSFTIFVPIVLMNLLIGLAVGDIAEVQKHASLKRIAMQVELHTSLEKKLPLWFLRKVDQKSTIVYPNKPRSGGMLFHIFCFLFCTGEIRQEIPNADKSLEMEILKQKYRLKDLTFLLEKQHELIKLIIQKMEIISETEDDDSHCSFQDRFKKEQMEQRNSRWNTVLRAVKAKTHHLEP
modifications: BODIPY-IA (BIA) covalent adduct at Cys621
B2: Human TRPA1 (N-terminal-tagged MBP-TRPA1), unmodified (apo or with the antagonist A-967079) (natural protein)
chain: MKRSLRKMWRPGEKKEPQGVVYEDVPDDTEDFKESLKVVFEGSAYGLQNFNKQKKLKRCDDMDTFFLHYAAAEGQIELMEKITRDSSLEVLHEMDDYGNTPLHCAVEKNQIESVKFLLSRGANPNLRNFNMMAPLHIAVQGMNNEVMKVLLEHRTIDVNLEGENGNTAVIIACTTNNSEALQILLKKGAKPCKSNKWGCFPIHQAAFSGSKECMEIILRFGEEHGYSRQLHINFMNNGKATPLHLAVQNGDLEMIKMCLDNGAQIDPVEKGRCTAIHFAATQGATEIVKLMISSYSGSVDIVNTTDGCHETMLHRASLFDHHELADYLISVGADINKIDSEGRSPLILATASASWNIVNLLLSKGAQVDIKDNFGRNFLHLTVQQPYGLKNLRPEFMQMQQIKELVMDEDNDGCTPLHYACRQGGPGSVNNLLGFNVSIHSKSKDKKSPLHFAASYGRINTCQRLLQDISDTRLLNEGDLHGMTPLHLAAKNGHDKVVQLLLKKGALFLSDHNGWTALHHASMGGYTQTMKVILDTNLKCTDRLDEDGNTALHFAAREGHAKAVALLLSHNADIVLNKQQASFLHLALHNKRKEVVLTIIRSKRWDECLKIFSHNSPGNKCPITEMIEYLPECMKVLLDFCMLHSTEDKSCRDYYIEYNFKYLQCPLEFTKKTPTQDVIYEPLTALNAMVQNNRIELLNHPVCKEYLLMKWLAYGFRAHMMNLGSYCLGLIPMTILVVNIKPGMAFNSTGIINETSDHSEILDTTNSYLIKTCMILVFLSSIFGYCKEAGQIFQQKRNYFMDISNVLEWIIYTTGIIFVLPLFVEIPAHLQWQCGAIAVYFYWMNFLLYLQRFENCGIFIVMLEVILKTLLRSTVVFIFLLLAFGLSFYILLNLQDPFSSPLLSIIQTFSMMLGDINYRESFLEPYLRNELAHPVLSFAQLVSFTIFVPIVLMNLLIGLAVGDIAEVQKHASLKRIAMQVELHTSLEKKLPLWFLRKVDQKSTIVYPNKPRSGGMLFHIFCFLFCTGEIRQEIPNADKSLEMEILKQKYRLKDLTFLLEKQHELIKLIIQKMEIISETEDDDSHCSFQDRFKKEQMEQRNSRWNTVLRAVKAKTHHLEP
B3: Human TRPA1 (MBP-TRPA1) modified with iodoacetamide (IA), activated state (natural protein)
chain: B2 chain
modifications: iodoacetamide covalent adduct at Cys621; weaker density at Cys665, which may reflect partial modification

This series deals with the molecule itself. Kind of series: cryo-EM structure.
In the case of B1, the binding result is “binds”.

As to B2, the binding result is reported as “binds”.

Turning to B3, the binding result was “binds”.
